Values joined by “and” are separate entries in the source; they are usually repeats but may differ in a detail not shown here. Equal entries are not always repeated.
T1: CcmK2 (Synechocystis sp. PCC6803), FLAG tag removed by TEV protease (Synechocystis sp. PCC6803, UniProt P72761 1-103)
T1 construct: CcmK2, BMC-H carboxysome shell protein of Synechocystis sp; PCC 6803; monomer masses in native MS indicate loss of the first methionine; Residues left after TEV cleavage are in S1 List; source: E. coli BL21(DE3), co-expressed with K1-His4, co-purified on TALON, tag removed with TEV protease; not shown: FLAG, C-terminal, cleaved
T1 sequence (looked up): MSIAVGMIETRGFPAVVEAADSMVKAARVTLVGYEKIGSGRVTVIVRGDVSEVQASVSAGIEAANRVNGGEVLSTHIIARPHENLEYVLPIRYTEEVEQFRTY

B1: CcmK4 (Synechocystis sp. PCC6803), His4 tag removed by TEV protease (natural protein, UniProt P73407 1-112, looked up)
chain: MSAQSAVGSIETIGFPGILAAADAMVKAGRITIVGYIRAGSARFTLNIRGDVQEVKTAMAAGIDAINRTEGADVKTWVIIPRPHENVVAVLPIDFSPEVEPFREAAEGLNRR
notes: CcmK4, BMC-H carboxysome shell protein of Synechocystis sp; PCC 6803; In native MS it came from His4-K4 co-expressed with K3-FLAG; The untagged K4 homo-hexamer of the exchange experiment was made from a His4-tagged K4 expressed alone; Residues left after TEV cleavage are in S1 List; also called untagged K4; TEV-untagged His4-K4; source: E. coli BL21(DE3), TALON-purified, tag removed with TEV …
B2: His4-CcmK4 (Synechocystis sp. PCC6803 CcmK4, N-ter His4 tag) (natural protein, UniProt P73407 1-112, looked up)
chain: B1 chain
notes: CcmK4, BMC-H carboxysome shell protein of Synechocystis sp; PCC 6803; The crystallised sample came from His4-K4/K3-FLAG; no tag removal is told for it; also called His4-K4; source: E. coli BL21(DE3), co-expressed (pET26b-based plasmid, two or four cassettes), soluble fraction of the lysate; TALON-purified (pIsep-FPLC for crystallisation); not shown: His4, N-terminal, kept
B3: CcmK3 (Synechocystis sp. PCC6803), FLAG tag removed by TEV protease (natural protein, UniProt P73406 1-103, looked up)
chain: MPQAVGVIQTLGFPSVLAAADAMLKGGRVTLVYYDLAERGNFVVAIRGPVSEVNLSMKMGLAAVNESVMGGEIVSHYIVPNPPENVLAVLPVEYTEKVARFRT
notes: CcmK3, BMC-H carboxysome shell protein of Synechocystis sp; PCC 6803; monomer mass agrees with loss of the first methionine; Residues left after TEV cleavage are in S1 List; also called TEV-untagged K3-FLAG; source: E. coli BL21(DE3), co-expressed with His4-K4, co-purified on TALON, tag removed with TEV protease; not shown: FLAG, C-terminal, cleaved
B4: CcmK1 (Synechocystis sp. PCC6803), His4 tag removed by TEV protease (natural protein, UniProt P72760 1-111, looked up)
chain: MSIAVGMIETLGFPAVVEAADSMVKAARVTLVGYEKIGSGRVTVIVRGDVSEVQASVTAGIENIRRVNGGEVLSNHIIARPHENLEYVLPIRYTEAVEQFREIVNPSIIRR
notes: CcmK1, BMC-H carboxysome shell protein of Synechocystis sp; PCC 6803; monomer masses in native MS indicate loss of the first methionine; In native MS it came from K1-His4 co-expressed with K2-FLAG; Residues left after TEV cleavage are in S1 List; also called untagged K1; source: E. coli BL21(DE3), TALON-purified, tag removed with TEV protease; not shown: His4, C-terminal, cleaved

Tests used:
[1] = target: the molecule itself; assay: native MS; TALON-purified co-expressed samples, tags removed with TEV protease; 150 mM ammonium acetate pH 8; positive-ion native ESI-MS with collision induced dissociation of selected hexamers
[2] = target: the molecule itself; assay: crystal structure; pIsep-FPLC fractions of His4-CcmK4/CcmK3-FLAG at 2.9 mg/mL; 22% PEG 4000, 0.2 M ammonium sulfate, 0.1 M sodium acetate pH 4.6, 12 C; only CcmK4 found in the crystal
[3] = target: B1; assay: native MS; TALON-purified co-expressed samples, tags removed with TEV protease; 150 mM ammonium acetate pH 8; positive-ion native ESI-MS with collision induced dissociation of selected hexamers; conditions: both partners purified
[4] = target: T1, CcmK2 (Synechocystis sp. PCC6803), FLAG …; assay: as above; conditions: both partners purified

## B1
[1]
  stoichiometry N: 6 subunits

## B2
[2]
  stoichiometry N: 6 subunits

## B3
[3]
  stoichiometry N: 0.2 K3:K4 in the hexamer (1:5) and 0.5 K3:K4 in the hexamer (2:4)

## B4
[4]
  stoichiometry N: 0.2 K1:K2 in the hexamer (1:5) and 2 K1:K2 in the hexamer (4:2)

Reference: paper PMC6788708, “Occurrence and stability of hetero-hexamer associations formed by β-carboxysome CcmK shell components” (PLoS ONE, 2019)
